Reference: patent US12358959B2, “Compositions and methods for oligodendrocyte development” (CHILDREN'S MEDICAL CENTER CORPORATION, priority 2016, dated 2025)

How the values were obtained:
GPR56^N = biological target: T1, GPR56^N (Mus musculus, UniProt Q8K209); assay: In vitro biotinylation/proteomics pull-down from mixed glial cell lysate with mass spectrometry; details: peptide sequences specific for binding to GPR56^N
T1 construct: Using the soluble N-terminal fragment of GPR56 (GPR56^N); made in house
T1 sequence (Q8K209 26-382 limits assumed): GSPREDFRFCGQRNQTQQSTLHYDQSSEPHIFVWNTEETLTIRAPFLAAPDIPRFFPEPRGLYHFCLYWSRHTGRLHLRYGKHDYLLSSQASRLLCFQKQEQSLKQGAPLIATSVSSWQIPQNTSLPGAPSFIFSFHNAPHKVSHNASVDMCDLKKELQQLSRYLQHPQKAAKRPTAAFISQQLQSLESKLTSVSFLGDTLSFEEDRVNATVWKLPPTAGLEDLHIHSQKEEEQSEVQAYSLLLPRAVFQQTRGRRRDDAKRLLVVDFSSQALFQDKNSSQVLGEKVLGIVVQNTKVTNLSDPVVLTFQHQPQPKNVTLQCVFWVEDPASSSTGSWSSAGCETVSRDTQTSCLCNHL
Description: To identify the ligand of GPR56 in OPCs, an in vitro biotinylation/proteomics approach was employed using single-step capture on streptavidin beads to purify the binding partner(s) of GPR56 (FIGS. 2A-2B). Proteins with more than five identified tryptic peptides in the Mass Spectrometry (MS) output from three independent experiments are listed at Table 1.
(§1) GPR56^N and GPR56^Ndel fusions proteins with either mFc or hFc tag were generated as previously described (Luo et al. Proc Natl Acad Sci USA 108, 12925-12930, 2011). BirA enzyme was used to in vitro biotinylate GPR56^N-mFc-biotag protein as previously described (De Laurenzi and Melino Mol Cell Biol 21, 148-155, 2001). Mixed glial cell lysate was incubated with biotinylated GPR56^N protein in lysis buffer [20 mM Hepes (pH 7.3), 150 mM NaCl, and 5 mM MgCl2] with protein inhibitor mixture (Roche Molecular Biochemicals) and 1% Brij 96 (Fluka). Streptavidin beads (Sigma) were used to affinity purify immunocomplexes. GPR56-associated proteins were eluted in 2×SDS loading buffer, subjected to SDS/PAGE. The whole lane was used for MS at the Taplin Biological Mass Spectrometry at Havard Medical School. MS data were searched against the mouse International Protein Index (IPI mouse 339) database using the protein identification software Mascot (v2.2.04, Matrix Sciences) (Luo et al. Proc Natl Acad Sci USA 108, 12925-12930, 2011).
as §1, with “al.,” for “al.”, “(Stacey et al., J” for “(De Laurenzi and Melino Mol Cell”, “Chem 277, 29283-29293, 2002).” for “21, 148-155, 2001).”, “(20” for “[20”, “[pH 7.3],” for “(pH 7.3),”, “MgCl2)” for “MgCl2]”

[1] = biological target: Transglutaminase 2 (Tgm2), mouse, endogenous (mixed glial cell lysate / microglia-derived) (mouse) (UniProt P21981); assay: streptavidin pull-down of biotinylated GPR56^N-mFc from mixed glial cell lysate, tryptic peptide mass spectrometry
[2] = biological target: Plectin (Plec), mouse, endogenous (mixed glial cell lysate) (mouse) (UniProt Q9QXS1); assay: as above
Chain of Plectin (Plec), mouse, endogenous (mixed glial cell lysate) (mouse) (Q9QXS1 whole entry): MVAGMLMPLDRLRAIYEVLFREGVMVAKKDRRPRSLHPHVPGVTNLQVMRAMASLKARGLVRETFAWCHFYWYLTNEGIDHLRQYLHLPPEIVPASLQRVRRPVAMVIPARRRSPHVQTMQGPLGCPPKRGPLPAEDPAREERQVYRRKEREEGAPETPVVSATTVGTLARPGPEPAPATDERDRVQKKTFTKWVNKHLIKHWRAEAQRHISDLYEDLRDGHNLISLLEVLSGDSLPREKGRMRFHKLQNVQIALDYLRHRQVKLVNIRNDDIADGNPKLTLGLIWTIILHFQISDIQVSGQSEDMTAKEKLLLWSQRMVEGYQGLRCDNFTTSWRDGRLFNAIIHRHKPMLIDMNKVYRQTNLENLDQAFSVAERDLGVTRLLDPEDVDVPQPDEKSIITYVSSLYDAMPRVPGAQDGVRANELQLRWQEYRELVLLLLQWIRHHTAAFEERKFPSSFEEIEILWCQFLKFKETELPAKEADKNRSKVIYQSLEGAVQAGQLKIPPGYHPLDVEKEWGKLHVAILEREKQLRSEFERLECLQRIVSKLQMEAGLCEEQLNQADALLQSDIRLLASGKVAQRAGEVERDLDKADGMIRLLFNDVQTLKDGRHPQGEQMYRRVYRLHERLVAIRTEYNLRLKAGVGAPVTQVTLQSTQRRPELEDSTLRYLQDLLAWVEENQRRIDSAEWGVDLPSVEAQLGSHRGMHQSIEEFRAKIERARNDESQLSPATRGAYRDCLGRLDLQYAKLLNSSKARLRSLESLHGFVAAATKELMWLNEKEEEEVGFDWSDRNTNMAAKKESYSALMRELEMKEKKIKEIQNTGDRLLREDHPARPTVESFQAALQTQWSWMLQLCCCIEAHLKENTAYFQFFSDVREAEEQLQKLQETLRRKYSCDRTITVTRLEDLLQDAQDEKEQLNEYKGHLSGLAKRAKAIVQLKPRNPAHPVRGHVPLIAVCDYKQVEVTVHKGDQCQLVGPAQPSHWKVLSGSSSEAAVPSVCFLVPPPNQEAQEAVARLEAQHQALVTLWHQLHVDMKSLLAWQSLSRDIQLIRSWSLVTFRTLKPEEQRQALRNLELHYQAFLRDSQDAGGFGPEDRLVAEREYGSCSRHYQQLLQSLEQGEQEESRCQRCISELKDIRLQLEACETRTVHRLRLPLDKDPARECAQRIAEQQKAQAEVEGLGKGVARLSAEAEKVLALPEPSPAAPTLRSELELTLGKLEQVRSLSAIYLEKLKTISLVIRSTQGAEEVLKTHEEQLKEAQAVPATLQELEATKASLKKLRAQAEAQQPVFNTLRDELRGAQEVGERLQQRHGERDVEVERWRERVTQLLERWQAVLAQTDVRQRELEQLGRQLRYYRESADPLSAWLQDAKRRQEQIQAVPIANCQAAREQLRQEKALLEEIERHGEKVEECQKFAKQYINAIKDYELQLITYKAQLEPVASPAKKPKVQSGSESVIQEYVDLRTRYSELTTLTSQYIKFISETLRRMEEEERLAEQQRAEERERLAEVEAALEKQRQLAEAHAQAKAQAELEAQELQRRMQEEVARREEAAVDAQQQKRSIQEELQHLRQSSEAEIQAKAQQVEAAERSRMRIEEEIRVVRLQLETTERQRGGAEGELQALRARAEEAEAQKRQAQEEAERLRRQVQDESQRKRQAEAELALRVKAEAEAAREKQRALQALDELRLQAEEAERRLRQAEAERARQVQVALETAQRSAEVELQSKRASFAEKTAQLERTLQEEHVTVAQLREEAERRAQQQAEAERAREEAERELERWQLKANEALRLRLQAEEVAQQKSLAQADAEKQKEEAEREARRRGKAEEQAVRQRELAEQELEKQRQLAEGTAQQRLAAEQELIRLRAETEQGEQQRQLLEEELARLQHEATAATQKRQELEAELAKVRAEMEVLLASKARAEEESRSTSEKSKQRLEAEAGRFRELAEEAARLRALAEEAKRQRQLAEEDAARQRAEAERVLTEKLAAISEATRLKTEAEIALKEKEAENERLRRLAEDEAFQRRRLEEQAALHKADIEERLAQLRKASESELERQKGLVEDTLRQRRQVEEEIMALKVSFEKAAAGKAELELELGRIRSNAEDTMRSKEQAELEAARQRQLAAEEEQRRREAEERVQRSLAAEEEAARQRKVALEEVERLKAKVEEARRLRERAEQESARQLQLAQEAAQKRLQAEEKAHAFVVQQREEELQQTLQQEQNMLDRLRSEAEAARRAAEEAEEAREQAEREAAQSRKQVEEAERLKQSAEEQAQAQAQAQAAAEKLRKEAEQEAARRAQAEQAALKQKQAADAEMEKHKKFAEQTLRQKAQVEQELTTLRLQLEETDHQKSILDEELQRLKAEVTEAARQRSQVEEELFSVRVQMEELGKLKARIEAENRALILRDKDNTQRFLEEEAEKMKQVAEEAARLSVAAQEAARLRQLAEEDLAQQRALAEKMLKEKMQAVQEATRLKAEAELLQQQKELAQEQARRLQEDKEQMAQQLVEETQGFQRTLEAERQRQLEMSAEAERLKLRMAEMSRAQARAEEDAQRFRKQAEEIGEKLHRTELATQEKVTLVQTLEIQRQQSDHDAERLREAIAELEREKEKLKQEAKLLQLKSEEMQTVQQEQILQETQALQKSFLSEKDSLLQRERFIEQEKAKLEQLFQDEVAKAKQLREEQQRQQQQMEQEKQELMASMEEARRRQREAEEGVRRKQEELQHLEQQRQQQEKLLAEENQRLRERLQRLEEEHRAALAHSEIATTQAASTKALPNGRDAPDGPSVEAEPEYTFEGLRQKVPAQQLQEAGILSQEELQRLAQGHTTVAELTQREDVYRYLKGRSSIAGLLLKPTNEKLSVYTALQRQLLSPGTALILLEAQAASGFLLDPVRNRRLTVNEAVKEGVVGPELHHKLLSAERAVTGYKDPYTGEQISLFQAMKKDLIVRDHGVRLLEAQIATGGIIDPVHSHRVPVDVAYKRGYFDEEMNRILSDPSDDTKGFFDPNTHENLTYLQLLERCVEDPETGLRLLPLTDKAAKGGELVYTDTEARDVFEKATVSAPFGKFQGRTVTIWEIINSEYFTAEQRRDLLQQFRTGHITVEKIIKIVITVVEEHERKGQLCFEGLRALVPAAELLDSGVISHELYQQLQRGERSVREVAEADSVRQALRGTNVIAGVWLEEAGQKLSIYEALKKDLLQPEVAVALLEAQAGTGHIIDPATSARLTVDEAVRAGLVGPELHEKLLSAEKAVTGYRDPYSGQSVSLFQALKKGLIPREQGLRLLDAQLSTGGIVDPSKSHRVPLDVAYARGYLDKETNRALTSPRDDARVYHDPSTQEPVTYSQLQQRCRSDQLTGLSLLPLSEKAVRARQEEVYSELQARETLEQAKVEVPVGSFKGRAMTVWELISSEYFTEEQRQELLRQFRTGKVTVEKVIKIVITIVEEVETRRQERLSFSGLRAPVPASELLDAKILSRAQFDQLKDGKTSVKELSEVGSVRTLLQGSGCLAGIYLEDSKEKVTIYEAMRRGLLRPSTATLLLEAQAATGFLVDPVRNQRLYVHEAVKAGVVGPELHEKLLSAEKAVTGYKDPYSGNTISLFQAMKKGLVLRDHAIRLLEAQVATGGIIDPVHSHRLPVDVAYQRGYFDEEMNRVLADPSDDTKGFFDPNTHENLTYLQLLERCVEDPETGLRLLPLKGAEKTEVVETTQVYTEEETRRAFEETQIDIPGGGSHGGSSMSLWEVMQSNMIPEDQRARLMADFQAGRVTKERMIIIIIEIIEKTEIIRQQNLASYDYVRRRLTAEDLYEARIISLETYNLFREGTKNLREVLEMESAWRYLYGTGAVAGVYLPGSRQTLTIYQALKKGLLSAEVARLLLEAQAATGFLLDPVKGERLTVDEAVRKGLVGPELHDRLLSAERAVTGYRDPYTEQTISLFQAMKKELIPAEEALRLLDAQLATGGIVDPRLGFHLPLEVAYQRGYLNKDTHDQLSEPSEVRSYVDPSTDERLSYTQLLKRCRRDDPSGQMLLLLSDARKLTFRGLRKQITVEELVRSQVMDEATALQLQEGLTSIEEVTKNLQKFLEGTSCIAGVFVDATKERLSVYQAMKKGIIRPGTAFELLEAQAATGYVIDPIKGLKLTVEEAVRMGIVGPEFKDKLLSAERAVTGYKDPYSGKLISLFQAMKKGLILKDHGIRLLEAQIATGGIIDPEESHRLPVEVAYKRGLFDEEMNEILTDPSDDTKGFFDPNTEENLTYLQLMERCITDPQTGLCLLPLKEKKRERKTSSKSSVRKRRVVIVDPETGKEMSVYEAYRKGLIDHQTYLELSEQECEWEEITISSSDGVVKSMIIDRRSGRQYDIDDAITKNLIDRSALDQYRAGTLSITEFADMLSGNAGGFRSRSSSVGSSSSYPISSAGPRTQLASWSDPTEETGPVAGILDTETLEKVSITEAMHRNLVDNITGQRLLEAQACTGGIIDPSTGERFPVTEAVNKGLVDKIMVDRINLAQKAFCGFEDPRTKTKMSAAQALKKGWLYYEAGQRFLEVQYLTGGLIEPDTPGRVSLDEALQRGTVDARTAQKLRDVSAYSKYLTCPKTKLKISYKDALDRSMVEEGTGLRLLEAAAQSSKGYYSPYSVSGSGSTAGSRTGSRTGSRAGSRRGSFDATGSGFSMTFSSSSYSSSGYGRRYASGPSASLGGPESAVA

[3] = tested on: oligodendrocyte precursors (OPCs); assay: OPC proliferation on laminin-111 or fibronectin with recombinant TG2; type: cell-based, mouse
Description: P=0.70 (control vs. TG2-W241A); **P=0.0088 (TG2 vs. TG2-W241A). […] FIG. 16D depicts a Western blot of active RhoA (top panel) and total RhoA (bottom panel) in the corpus callosum (CC) of Tgm2^+/+ and Tgm2^−/− mice. FIG. 16E is a graph showing that the relative level of active RhoA to total RhoA was diminished in the CC of Tgm2^−/− mice compared to […]. *P=0.0207, unpaired t-test, N=3 per genotype. FIG. 16F depicts a Western blot of GPR56^N in the supernatant of HEK 293T cell culture after exposed to either TG2 or TG2+laminin-111 (top panel), GTP-RhoA (middle panel) and total RhoA (lower panel) in HEK 293T cell pellet exposed to either TG2 or TG2+laminin-111. FIG. 16G is a graph showing that released GPR56 NTF was increased in the presence of both TG2 and laminin-111. ***P=0.0002; One-way ANOVA followed by Tukey post-hoc test, F (2,6)=49.66, n.s. P=0.95 (control vs. TG2); ***P=0.0003 (control vs. TG2+laminin-111); ***P=0.0004 (TG2 vs. TG2+laminin-111); N=3 per treatment group. FIG. 16H is a graph showing that the relative level of GTP-RhoA to total RhoA was increased in the presence of both TG2 and laminin-111, corresponding to the increased GPR56 NTF in the supernatant. **P=0.0028; One-way ANOVA followed by Tukey post-hoc test, F (2,6)=18.19, n.s. P=0.75 (control vs. TG2); **P=0.0035 (control vs. TG2+laminin-111); **P=0.0071 (TG2 vs. TG2+laminin-111) N=3 per treatment group. Error bars are mean±s.e.m in FIGS. 16E, 16G, and 16H.
To establish conditions for mechanistic investigation of the function of TG2 on OPC GPR56 during myelination and remyelination, in vitro experiments were performed with wt and Gpr56^−/− oligodendrocyte precursors (OPCs) and human recombinant TG2. […] TG2 is an extracellular protein with intrinsic transamidation activity, capable of cross-linking ECM proteins, including laminin-111 (Aeschlimann et al., J Biol Chem 267, 11316-11321, 1992; Belkin, FEBS J 278, 4704-4716, 2011). […] To confirm that TG2 regulates OPC proliferation in a GPR56-dependent manner, OPCs derived from P5 Gpr56^+/+ or Gpr56^−/− pups were cultured in the presence of laminin-111, with or without recombinant TG2. TG2-associated proliferation was attenuated in Gpr56^−/− OPCs (FIG. 16C), further supporting a GPR56-dependent TG2 function on OPC proliferation.
Oligodendrocyte precursor cells (OPCs) were isolated from mixed male and female P5-8 Gpr56^+/+ or Gpr56^−/− mouse forebrains as previously described (Wang et al., Neuron 29, 603-614, 2001; Watkins et al., Neuron 60, 555-569, 2008). Briefly, OPCs were purified by negatively selecting with mouse anti-Thy 1.2 (Serotec, Cat #MCA02R) and mouse anti-GalC (Millipore, Cat #MAB342), followed by mouse anti-04 (04 hybridoma supernatant) for positive selection. After releasing OPCs from the 04 plate by trypsinization, cells were resuspended in proliferation media containing PDGF-AA and NT-3 (PreproTech). OPCs were plated on coverslips coated with poly-D-lysine before coating with laminin I (R&D Systems, Cat #3400-010-01) or fibronectin (Millipore, Cat #341668) as previously described (Dugas et al., J Neurosci 26, 10967-10983, 2006). After 24 hr, TG2 (2 nM) was added to the cultures and incubated for an additional 24 hr before fixation with 4% PFA and staining for PDGFRα and Ki67.

With “Plectin (Plec): protein from mixed glial cell lysate purified with GPR56^N” the “Peptide Number (Exp1)” value (GPR56^N; experiment 1) was 21, the “Peptide Number (Exp2)” value (GPR56^N; experiment 2) was 22 and the “Peptide Number (Exp3)” value (GPR56^N; experiment 3) was 23.

“biotinylated GPR56^N-mFc-biotag protein (Fc fusion)” was tested, and the Peptide Number (Exp1) [1] was 19 peptides, the Peptide Number (Exp2) [1] was 20 peptides and the Peptide Number (Exp3) [1] was 17 peptides. It also gave a Peptide Number (Exp1) [2] of 21 peptides, a Peptide Number (Exp2) [2] of 22 peptides and a Peptide Number (Exp3) [2] of 23 peptides.

In the case of fibronectin [reference compound], the OPC proliferation ([3]; wt OPCs, fibronectin as specificity control in place of laminin-111, with recombinant TG2) is reported as “inert”.

B1: TG2-W241A: transamidation-inactive, enzymatic dead mutant TG2 protein (protein)
chain: MAEELVLERCDLELETNGRDHHTADLCREKLVVRRGQPFWLTLHFEGRNYEASVDSLTFSVVTGPAPSQEAGTKARFPLRDAVEEGDWTATVVDQQDCTLSLQLTTPANAPIGLYRLSLEASTGYQGSSFVLGHFILLFNAWCPADAVYLDSEEERQEYVLTQQGFIYQGSAKFIKNIPWNFGQFEDGILDICLILLDVNPKFLKNAGRDCSRRSSPVYVGRVVSGMVNCNDDQGVLLGRADNNYGDGVSPMSWIGSVDILRRWKNHGCQRVKYGQCWVFAAVACTVLRCLGIPTRVVTNYNSAHDQNSNLLIEYFRNEFGEIQGDKSEMIWNFHCWVESWMTRPDLQPGYEGWQALDPTPQEKSEGTYCCGPVPVRAIKEGDLSTKYDAPFVFAEVNADVVDWIQQDDGSVHKSINRSLIVGLKISTKSVGRDEREDITHTYKYPEGSSEEREAFTRANHLNKLAEKEETGMAMRIRVGQSMNMGSDFDVFAHITNNTAEEYVCRLLLCARTVSYNGILGPECGTKYLLNLNLEPFSEKSVPLCILYEKYRDCLTESNLIKVRALLVEPVINSYLLAERDLYLENPEIKIRILGEPKQKRKLVAEVSLQNPLPVALEGCTFTVEGAGLTEEQKTVEIPDPVEAGEEVKVRMDLLPLHMGLHKLVVNFESDKLKAVKGFRNVIIGPA
With B1 the “OPC proliferation, wild type TG2 vs enzymatic dead mutant” value ([3]; versus control, One-way ANOVA, Tukey post-hoc) was “failed to promote OPC proliferation and n.s”.
